Measurements taken from FireProtDB (doi:10.1021/bi00102a015).

Conditions: Rhodobacter capsulatus (strain ATCC BAA-309 / NBRC 16581 / SB1003); pH 7.5; 25 °C; GdnHCl; CD; Tris-HCl 20 mM; NaCl 40 mM; whole UniProt chain shown

B1: Cytochrome c2 wild type, P00094 (protein)
chain: MKISLTAATVAALVLAAPAFAGDAAKGEKEFNKCKTCHSIIAPDGTEIVKGAKTGPNLYGVVGRTAGTYPEFKYKDSIVALGASGFAWTEEDIATYVKDPGAFLKEKLDDKKAKTGMAFKLAKGGEDVAAYLASVVK
denaturant m value: 2.7 kcal/mol/M | denaturant midpoint (higher = more stable): 1.7 M | unfolding free energy: 4.4 kcal/mol
